The results in this text go back to patent US20100286374A1.

The target of this assay is huIgG1 Fc (dummy) K409D&K392D (human) [IgG part: P0DOX5]. Put plainly: co-expression in 293-6E with M315 scFv-Fc D399′K; E357′K, non-reduced SDS-PAGE (FIG. 10), band density.

The substance “huIgG1 Fc (dummy) K409D&K392D (from UniProt P0DOX5 218-449)” came in with a percentage of Dummy Fc Homodimer yield of 20.9%.
